In patent US20100211325A1:
One block for each binder: values may come before it.

How the values were obtained:
[1] = target: Laminin 511/521 (LM511/521) (UniProt O15230); test: SPR (Biacore), Lu protein captured, 10 nM LM511/521, against native Lu gp or D1+2+3+4
[2] = target: Laminin 511/521 (LM511/521) (UniProt O15230); test: ELISA, Lu protein captured, 5 nM LM511/521, against native Lu gp or D1+2+3+4
[3] = target: Laminin 511/521 (LM511/521) (UniProt O15230); test: ELISA, 0.05 nM Lu gpFc captured by anti-human Fc, 5 nM LM511/521, anti-laminin detection
[4] = target: Laminin 511/521 (LM511/521) (UniProt O15230); test: ELISA of FIG. 3c, 0.05 nM Lu gpFc captured by anti-Fc, LM511/521 added, anti-laminin detection
[5] = target: Laminin 511/521 (LM511/521) (UniProt O15230); test: SPR (Biacore X), Lu gpFc captured on protein A chip (40 RU), 100 µl injection of 10 nM LM511/521, total change in RU
[6] = target: Laminin 511/521 (LM511/521) (UniProt O15230); test: SPR (Biacore) of FIG. 6e, 100 µl injection of 10 nM LM511/521 at 30 µl/min
[7] = target: Laminin 511/521 (LM511/521) (UniProt O15230); test: not given
[8] = target: Laminin 511/521 (LM511/521) (UniProt O15230); test: ELISA of FIG. 6d, 0.05 nM Lu protein, LM511/521 added, anti-laminin detection
[9] = target: Laminin 511/521 (LM511/521) (UniProt O15230); test: electron tomography (Protein Tomography) of an equimolar mixture of Lu gpFc and LM511/521
[10] = target: Laminin 511/521 (LM511/521) (UniProt O15230); test: cell-based or functional assay

B3: Lu gpFc E132A/D133A (Fc fusion, not shown: a dimerising Fc or GST)
chain: EVRLSVPPLVEVMRGKSVILDCTPTGTHDHYMLEWFLTDRSGARPRLASAEMQGSELQVTMHDTRGRSPPYQLDSQGRLVLAEAQVGDERDYVCVVRAGAAGTAEATARLNVFAKPEATEVSPNKGTLSVMAASAQEIATCNSRNGNPAPKITWYRNGQRLEVPVEMNPEGYMTSRTVREASGLLSLTSTLYLRLRKDDRDASFHCAAHYSLPEGRHGRLDSPTFHLTLHYPTEHVQFWVGSPSTPAGWVREGDTVQLLCRGDGSPSPEYTLFRLQDEQEEVLNVNLEGNLTLEGVTRGQSGTYGCRVEDYDAADDVQLSKTLELRVAYLDPLELSEGKVLSLPLNSSAVVNCSVHGLPTPALRWTKDSTPLGDGPMLSLSSITFDSNGTYVCEASLPTVPVLSRTQNFTLLVQGSPELKTAEIEPKADGSWREGDEVTLICSARGHPDPKLSWSQLGGSPAEPIPGRQGWVSSSLTLKVTSALSRDGISCEASNPHGNKRHVFHFGTVSPQTSQA
ELISA % of native Lu gpFc [3]: 69.4% | Biacore Δ RUs [5]: 57.3 RU

B4: Lu gpFc E180A (Fc fusion, not shown: a dimerising Fc or GST)
chain: EVRLSVPPLVEVMRGKSVILDCTPTGTHDHYMLEWFLTDRSGARPRLASAEMQGSELQVTMHDTRGRSPPYQLDSQGRLVLAEAQVGDERDYVCVVRAGAAGTAEATARLNVFAKPEATEVSPNKGTLSVMEDSAQEIATCNSRNGNPAPKITWYRNGQRLEVPVEMNPEGYMTSRTVRAASGLLSLTSTLYLRLRKDDRDASFHCAAHYSLPEGRHGRLDSPTFHLTLHYPTEHVQFWVGSPSTPAGWVREGDTVQLLCRGDGSPSPEYTLFRLQDEQEEVLNVNLEGNLTLEGVTRGQSGTYGCRVEDYDAADDVQLSKTLELRVAYLDPLELSEGKVLSLPLNSSAVVNCSVHGLPTPALRWTKDSTPLGDGPMLSLSSITFDSNGTYVCEASLPTVPVLSRTQNFTLLVQGSPELKTAEIEPKADGSWREGDEVTLICSARGHPDPKLSWSQLGGSPAEPIPGRQGWVSSSLTLKVTSALSRDGISCEASNPHGNKRHVFHFGTVSPQTSQA
ELISA % of native Lu gpFc [3]: 104% | Biacore Δ RUs [5]: 78.3 RU

B5: Human Lutheran glycoprotein on cells (K562 transfectant expressing Lu gp; late stage erythroblasts) (receptor)
chain: EVRLSVPPLVEVMRGKSVILDCTPTGTHDHYMLEWFLTDRSGARPRLASAEMQGSELQVTMHDTRGRSPPYQLDSQGRLVLAEAQVGDERDYVCVVRAGAAGTAEATARLNVFAKPEATEVSPNKGTLSVMEDSAQEIATCNSRNGNPAPKITWYRNGQRLEVPVEMNPEGYMTSRTVREASGLLSLTSTLYLRLRKDDRDASFHCAAHYSLPEGRHGRLDSPTFHLTLHYPTEHVQFWVGSPSTPAGWVREGDTVQLLCRGDGSPSPEYTLFRLQDEQEEVLNVNLEGNLTLEGVTRGQSGTYGCRVEDYDAADDVQLSKTLELRVAYLDPLELSEGKVLSLPLNSSAVVNCSVHGLPTPALRWTKDSTPLGDGPMLSLSSITFDSNGTYVCEASLPTVPVLSRTQNFTLLVQGSPELKTAEIEPKADGSWREGDEVTLICSARGHPDPKLSWSQLGGSPAEPIPGRQGWVSSSLTLKVTSALSRDGISCEASNPHGNKRHVFHFGTVSPQTSQAGVAVMAVAVSVGLLLLVVAVFYCVRRKGGPCCRQRREKGAPPPGEPGLSHSGSEQPEQTGLLMGGASGGARGGSGGFGDEC
cell adhesion assay: % of cells bound to coated laminin [10]: 70 to 85%

Now from value to binder:

% of the binding of native Lu gp (Biacore) [1]: 42% | % of the binding of native Lu gp (ELISA) [2]: 68%
B1: Lu gpFc domain deletion protein D1+2+3b (domains 1, 2 and 3, ending L354EL-…-Fc) (Fc fusion, not shown: a dimerising Fc or GST)
chain: EVRLSVPPLVEVMRGKSVILDCTPTGTHDHYMLEWFLTDRSGARPRLASAEMQGSELQVTMHDTRGRSPPYQLDSQGRLVLAEAQVGDERDYVCVVRAGAAGTAEATARLNVFAKPEATEVSPNKGTLSVMEDSAQEIATCNSRNGNPAPKITWYRNGQRLEVPVEMNPEGYMTSRTVREASGLLSLTSTLYLRLRKDDRDASFHCAAHYSLPEGRHGRLDSPTFHLTLHYPTEHVQFWVGSPSTPAGWVREGDTVQLLCRGDGSPSPEYTLFRLQDEQEEVLNVNLEGNLTLEGVTRGQSGTYGCRVEDYDAADDVQLSKTLELRVAYLNSPQTSQA

ELISA % of native Lu gpFc [3]: 100% | OD450 [4]: 0.95 OD450 | Biacore Δ RUs [5]: 115 RU | total change in RU [6]: 129 RU | Kd [7]: 7.9 nM | koff [7]: 0.0126 s⁻¹ | kon [7]: 1.6e+06 M⁻¹ s⁻¹ | OD450 [8]: 0.99 OD450 | % of LM511/521 molecules bound to Lu gpFc [9]: 50 to 60%
B2: Native Lu gpFc fusion protein (five extracellular domains of human Lutheran glycoprotein fused to Fc) (Fc fusion, not shown: a dimerising Fc or GST)
chain: EVRLSVPPLVEVMRGKSVILDCTPTGTHDHYMLEWFLTDRSGARPRLASAEMQGSELQVTMHDTRGRSPPYQLDSQGRLVLAEAQVGDERDYVCVVRAGAAGTAEATARLNVFAKPEATEVSPNKGTLSVMEDSAQEIATCNSRNGNPAPKITWYRNGQRLEVPVEMNPEGYMTSRTVREASGLLSLTSTLYLRLRKDDRDASFHCAAHYSLPEGRHGRLDSPTFHLTLHYPTEHVQFWVGSPSTPAGWVREGDTVQLLCRGDGSPSPEYTLFRLQDEQEEVLNVNLEGNLTLEGVTRGQSGTYGCRVEDYDAADDVQLSKTLELRVAYLDPLELSEGKVLSLPLNSSAVVNCSVHGLPTPALRWTKDSTPLGDGPMLSLSSITFDSNGTYVCEASLPTVPVLSRTQNFTLLVQGSPELKTAEIEPKADGSWREGDEVTLICSARGHPDPKLSWSQLGGSPAEPIPGRQGWVSSSLTLKVTSALSRDGISCEASNPHGNKRHVFHFGTVSPQTSQA
